Experiment [1] addresses rat CD163 on cells (rat) (UniProt D3Z9U2). The experiment can be described thus: flow cytometry, rat peritoneal macrophages, negative control staining with IgG-FITC. A general note: Flow cytometry measures light scatter and fluorescence of single cells or particles in a stream.
Experiment [2] concerns the target human CD163 on cells (human) (UniProt Q86VB7). Description: quantitative flow cytometry, fresh whole blood, heparin as anticoagulant.
Experiment [3] shares this target. Description: flow cytometry, R-PE mAb, fresh EDTA whole blood.
Experiment [4] deals with purified recombinant CD163 immobilized on a Biacore chip (human) (UniProt Q86VB7). Description: SPR, immobilized recombinant CD163, 2 mM free Ca2+. Background: Surface plasmon resonance follows binding to a sensor surface in real time, without labels.
Experiment [5] has as its target human CD163 on cells (human) (UniProt Q86VB7). Description: quantitative flow cytometry, fresh whole blood, citrate as anticoagulant.
Experiment [6] shares this target. Description: quantitative flow cytometry, fresh whole blood, EDTA as anticoagulant.
Experiment [7] has the same target. Description: 125I-labelled mAb on stable CD163 transfected Flp-In CHO cells (non-transfected cells: 1.47%).
Experiment [8] shares this target. The experiment can be described thus: quantitative flow cytometry, PBMC isolated by density gradient centrifugation.
Experiment [9] has the same target. The experiment can be described thus: flow cytometry, fresh whole blood, citrate as anticoagulant.
Experiment [10] has the same target. The experiment can be described thus: flow cytometry, PBMC isolated by density gradient centrifugation.
Experiment [11] shares this target. The experiment can be described thus: flow cytometry, fresh whole blood, heparin as anticoagulant.
Experiment [12] shares this target. Description: quantitative flow cytometry (Quantibrite PE beads), fresh EDTA whole blood.
The target of experiment [13] is purified recombinant CD163 immobilized on a Biacore chip (human) (UniProt Q86VB7). The experiment can be described thus: SPR, immobilized recombinant CD163, 10 mM EDTA buffer.
The target of experiment [14] is human CD163 on cells (human) (UniProt Q86VB7). The experiment can be described thus: flow cytometry, CD14+ILT3+HLA-DR+ monocytes; clone GHI/61 by paragraph 356.
Experiment [15] shares this target. The experiment can be described thus: flow cytometry, PE mAb, CD163+ peripheral blood dendritic cells.
The target is the same in experiment [16]. Description: 125I-labelled mAb on stable CD163 transfected Flp-In CHO cells (non-transfected cells: 1.23%).
Experiment [17] shares this target. The experiment can be described thus: flow cytometry, CD163low subset of peripheral blood dendritic cells; clone GHI/61 by paragraph 356.
For experiment [18] the target is unchanged. The experiment can be described thus: flow cytometry, PE mAb, CD14-ILT3+ dendritic cells in whole blood.
Experiment [19] shares this target. Description: flow cytometry, CD163high subset of peripheral blood dendritic cells; clone GHI/61 by paragraph 356.
For experiment [20] the target is unchanged. Description: 125I-labelled mAb on stable CD163 transfected Flp-In CHO cells (non-transfected cells: 1.37%).
Experiment [21] shares this target. The experiment can be described thus: flow cytometry, fresh whole blood, EDTA as anticoagulant.
The target is the same in experiment [22]. Description: flow cytometry, human mononuclear cells from buffy coats stained with Mac2-158-FITC, anti-CD14-PE and KN2/NRY-Alexa Fluor647.
Experiment [23] shares this target. The experiment can be described thus: flow cytometry, mononuclear cells from buffy coat, Mac2-158-FITC with KN2/NRY-Alexa Fluor647.
The target is the same in experiment [24]. The experiment can be described thus: flow cytometry, peripheral blood dendritic cells, negative staining control.
The target is the same in experiment [25]. The experiment can be described thus: quantitative flow cytometry (Quantibrite PE beads), fresh EDTA whole blood, isotype control.
For experiment [26], the target named is rat CD163 on cells (rat) (UniProt D3Z9U2). The experiment can be described thus: flow cytometry, rat peritoneal macrophages, ED2-FITC.
Experiment [27] shares this target. The experiment can be described thus: flow cytometry, rat peritoneal macrophages stained with anti-rat CD172a-PE (ED9) and anti-rat CD163-FITC (ED2).
The target of experiment [28] is T1, murine CD163 in solubilized murine spleen (mouse, UniProt Q2VLH6 39-1121, limits assumed).
T1 construct: also called non-reduced CD163
Description: western blot of solubilized murine spleen with hybridoma supernatants. From the text:
The clones were screened by testing binding of supernatants to murine CD163 in solubilized murine spleen loaded on a SDS-PAGE and western blotted, using standard techniques.
Background: In western blotting, separated proteins are transferred to a membrane and probed.

Chain of purified recombinant CD163 immobilized on a Biacore chip (human) (Q86VB7 42-1050 limits assumed): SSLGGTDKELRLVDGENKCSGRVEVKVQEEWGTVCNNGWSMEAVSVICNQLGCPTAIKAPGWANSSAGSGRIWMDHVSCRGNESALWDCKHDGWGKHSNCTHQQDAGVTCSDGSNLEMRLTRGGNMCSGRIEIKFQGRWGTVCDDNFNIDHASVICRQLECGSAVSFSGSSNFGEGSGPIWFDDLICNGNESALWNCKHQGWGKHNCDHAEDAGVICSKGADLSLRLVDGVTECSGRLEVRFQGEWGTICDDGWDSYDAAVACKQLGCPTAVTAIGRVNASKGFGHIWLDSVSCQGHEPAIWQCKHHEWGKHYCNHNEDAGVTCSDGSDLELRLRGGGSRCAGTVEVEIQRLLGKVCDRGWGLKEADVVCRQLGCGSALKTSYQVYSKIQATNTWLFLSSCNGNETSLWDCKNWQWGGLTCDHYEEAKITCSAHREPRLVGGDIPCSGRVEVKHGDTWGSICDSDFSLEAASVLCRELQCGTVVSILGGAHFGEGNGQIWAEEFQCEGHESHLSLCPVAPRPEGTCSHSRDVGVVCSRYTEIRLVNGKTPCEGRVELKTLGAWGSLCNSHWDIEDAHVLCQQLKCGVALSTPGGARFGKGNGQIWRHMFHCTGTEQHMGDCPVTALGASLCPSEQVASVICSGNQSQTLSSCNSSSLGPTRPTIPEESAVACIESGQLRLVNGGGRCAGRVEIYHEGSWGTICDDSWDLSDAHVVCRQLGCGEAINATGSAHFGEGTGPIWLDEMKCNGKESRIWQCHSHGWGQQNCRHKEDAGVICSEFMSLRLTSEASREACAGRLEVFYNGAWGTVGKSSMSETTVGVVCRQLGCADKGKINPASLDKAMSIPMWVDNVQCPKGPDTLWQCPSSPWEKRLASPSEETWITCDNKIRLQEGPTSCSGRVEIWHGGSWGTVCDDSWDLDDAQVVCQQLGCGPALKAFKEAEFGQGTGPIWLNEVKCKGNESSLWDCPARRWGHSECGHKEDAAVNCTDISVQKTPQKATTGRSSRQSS
T1 sequence (Q2VLH6 39-1121 limits assumed): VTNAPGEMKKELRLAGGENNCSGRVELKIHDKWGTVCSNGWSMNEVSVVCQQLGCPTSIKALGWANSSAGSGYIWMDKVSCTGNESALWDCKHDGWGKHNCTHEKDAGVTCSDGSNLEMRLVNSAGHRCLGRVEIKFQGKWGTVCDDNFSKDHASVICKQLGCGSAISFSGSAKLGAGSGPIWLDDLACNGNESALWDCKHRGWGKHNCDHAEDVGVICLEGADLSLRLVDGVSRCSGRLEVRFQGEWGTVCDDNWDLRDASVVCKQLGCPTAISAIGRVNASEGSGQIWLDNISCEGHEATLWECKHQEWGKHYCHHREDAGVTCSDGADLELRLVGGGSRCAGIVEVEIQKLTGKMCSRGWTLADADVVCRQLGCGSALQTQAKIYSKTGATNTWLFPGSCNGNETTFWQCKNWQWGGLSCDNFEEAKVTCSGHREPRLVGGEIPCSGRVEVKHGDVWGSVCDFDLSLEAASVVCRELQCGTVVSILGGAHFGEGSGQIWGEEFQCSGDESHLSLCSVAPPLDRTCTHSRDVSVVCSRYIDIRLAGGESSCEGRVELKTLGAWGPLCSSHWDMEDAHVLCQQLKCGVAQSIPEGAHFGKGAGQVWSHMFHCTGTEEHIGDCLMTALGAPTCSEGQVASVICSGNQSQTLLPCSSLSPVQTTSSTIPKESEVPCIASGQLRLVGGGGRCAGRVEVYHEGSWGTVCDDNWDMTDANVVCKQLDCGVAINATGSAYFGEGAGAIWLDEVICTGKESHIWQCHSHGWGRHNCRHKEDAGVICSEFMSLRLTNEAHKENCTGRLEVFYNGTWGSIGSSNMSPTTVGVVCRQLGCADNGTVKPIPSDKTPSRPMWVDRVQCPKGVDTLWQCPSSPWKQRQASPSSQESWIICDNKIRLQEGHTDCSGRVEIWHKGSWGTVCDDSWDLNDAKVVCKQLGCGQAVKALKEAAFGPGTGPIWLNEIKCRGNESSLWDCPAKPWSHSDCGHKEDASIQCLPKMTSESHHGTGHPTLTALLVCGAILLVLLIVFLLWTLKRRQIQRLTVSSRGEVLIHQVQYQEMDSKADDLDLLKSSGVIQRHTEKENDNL

In experiment [1], IgG-FITC (antibody) showed a share of cells in the lower right quadrant (IgG FITC positive) of 0.41% and a share of cells in the upper right quadrant of 0.06%.
What is called Kd is the free concentration of one partner at which half of the binding sites on the other are occupied at equilibrium, for simple one-to-one binding. For the molecule RM3/1 (antibody), the density of CD163 receptors per monocyte (PE antibodies bound per cell) in experiment [2] was determined as 210 per monocyte; in experiment [5] it was 207 per monocyte; in experiment [6] it was 86 per monocyte; in experiment [8] it was 132 per monocyte; in experiment [12], 101 per monocyte. Besides, the fraction of CD14+ monocytes stained positive for CD163 in [3] amounted to 0.33%; in experiment [9], 12.5%; in experiment [10], 2.5%; in experiment [11], 3.33%. In experiment [4], the Kd turned out to be 0.6 nM. For the same molecule, the percentage of cell-associated radioactivity in [7] is 7.77%.
For the molecule GHI/61 (antibody), the density of CD163 receptors per monocyte (PE antibodies bound per cell) stood at 58.3 per monocyte in [2], 1150 per monocyte in [5], 108 per monocyte in experiment [8] and 1030 per monocyte in [12]. Moreover, the Kd in experiment [13] was found to be 29 nM. Moreover, the percent of cells stained positive in [14] is 88%. The MFI in experiment [15] worked out at 22.3 MFI; in experiment [17], 4.2 MFI; in [19], 34.6 MFI. The fraction of CD14+ monocytes stained positive for CD163 in experiment [3] is 63%; in [9], 64.4%; in [10], 1.26%; in experiment [11], 0.82%. Besides, the percentage of cell-associated radioactivity in [16] was found to be 1.23%. Further, the fraction of peripheral blood dendritic cells recognized in experiment [18] is 10.5%.
Regarding Mac2-158 (antibody), the density of CD163 receptors per monocyte (PE antibodies bound per cell) in experiment [2] amounted to 18900 per monocyte; in experiment [5] it was 17700 per monocyte; in experiment [8], 11400 per monocyte; in experiment [12], 17700 per monocyte. For the same molecule, the percentage of cell-associated radioactivity in experiment [20] stood at 61.3%. Moreover, the MFI in experiment [15] was 108 MFI. Besides, the fraction of CD14+ monocytes stained positive for CD163 in [3] is 84.1%; in experiment [21], 87.2%; in experiment [9], 84%; in [10], 81.1%; in [11] it was 84.4%. For the same molecule, the share of cells in the lower right quadrant (Mac2-158-FITC positive, CD14-PE negative) in experiment [22] was determined as 1.22%. The share of cells in the lower right quadrant (Mac2-158-FITC positive, KN2/NRY-Alexa Fluor 647 negative) in [22] was 4.45%. In addition, in [22], the share of cells in the upper right quadrant (Mac2-158-FITC positive, CD14-PE positive) came to 73.9%. The same molecule returned a share of cells in the upper right quadrant (positive for both Mac2-158-FITC and KN2/NRY-Alexa Fluor 647) in experiment [22] of 70.7%. Also, the fraction of peripheral blood dendritic cells recognized in [18] amounted to 32.3%. In experiment [23], this molecule had a percent of peripheral monocytes showing co-binding of KN2/NRY and Mac2-158 of 70%.
With “Mouse IgG, PE, k isotype control, MOPC-21 (antibody)”, the MFI in [24] was found to be 1.23 MFI.
“R-PE-conjugated Mouse IgG1, k isotype control (MCG1) (antibody)” displayed a background staining (PE antibodies bound per cell) in [25] of 94 per monocyte.
In turn, ED2 (antibody) had a percent of peritoneal macrophages CD163 positive in [26] of 42%. In [27], the share of cells in the lower right quadrant (CD163 FITC positive, CD172a PE negative) came to 0.01% and the share of cells in the upper right quadrant (CD163 FITC positive, CD172a PE positive) was 42.9%.

B1: 3E10B10 (antibody, V domains shown)
VH: QVKLQESGGGLVQPKESLKISCAASGFTFSTAAMYWVRQAPGKGLDWVARIRTKPDNYATYYPASVKGRFTISRDDSKGMVYLQMDNLKTEDTAIYYCTAAYYYDGRFDYWGQGVMVTVAS
VL: DIVMTQTPSSQAVSAGERVTMRCKSSQSLLYSENKKNYLAWYQQKPGQSPKLLISWASTRESGVPDRFIGSGSGTDFTLTISSVQAEDLAVYYCDQYYDPPFTFGSGTKLEIK
notes: Rat IgG2a hybridoma antibody raised against mouse CD163 domain 1-3; also called rat anti-mouse E10B10 (IgG2a)
Take B1: the binding result in experiment [28] was “binds”.

Source of the values: patent publication US20120276193A1 (CYTOGUIDE A S, published 2012).
